# Reference: article PMC4218801
# Biological target: T1, Crp (Mycobacterium smegmatis mc2155) (UniProt A0R5H1)
# T1 sequence: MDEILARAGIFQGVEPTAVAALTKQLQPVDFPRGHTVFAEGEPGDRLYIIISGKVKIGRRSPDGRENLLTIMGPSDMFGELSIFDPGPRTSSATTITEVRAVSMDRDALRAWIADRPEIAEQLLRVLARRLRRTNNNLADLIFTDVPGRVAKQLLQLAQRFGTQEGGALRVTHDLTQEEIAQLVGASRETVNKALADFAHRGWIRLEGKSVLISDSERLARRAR
# Assay: EMSA
# Conditions: Invitrogen EMSA kit binding buffer, 100 fmol (9.3 ng) DNA, 100 uM cAMP, 20 min at room temperature; 8% native PAGE in 0.5x TBE pH 8.3 at 4 C, SYBR green stain
sequence,measurement,value
GGCAGACCGCATCCGCGGCGCGTTCGGTCGCCGCGTCCCGCGCGCGGGAGATCCGTGCGTTTCGGGATGTGATGCCCGTCGCACGACGTGAGCGGCGGTGTGGAGAATCACGGCTCAGCAAAGTTGCATTTGTAAGAGGGCGCGACCAGA (double strand) [ahpC 150-bp wild-type IR1],binding,binds
